This assay has as its target His-tagged SARS-CoV-2 RBD protein (binding studies) (SARS-CoV-2, UniProt P0DTC2). Put plainly: BLI. To be noted: both partners purified.

B1:  (antibody, V domains shown)
VH: QVQLVQSGAEVKKPGASVKVSCKASGYTFTSYYMHWVRQAPGQGLEWMGIINSSGGSTSYAQKFQGRVTMTRDTSTSTVYMELSSLRSEDTAVYYCARPPRNYYDSSGYYQRAEYFQHWGQGTLVTVSS
VL: DIQLTQSPSSLSASVGDRVTITCQASQDISNYLNWYQQRPGKAPKLLIYDASNLETGVPSRFSGSGSGTDFTFTISSLQPEDIATYYCQQYDNPPLTFGGGTKLEIK
notes: also called somatic revertant VH R100bS
Regarding B1, the binding result is given as “binds”.

The values above are taken from article doi:10.1101/2020.08.02.233536 (bioRxiv, 2020).
